This note sets out measurements from US20240368668A1, “SUBSTRATES AND BIOMARKERS OF ADAMTS7” (The Broad Institute, Inc., priority 2021, published 2024).

Square brackets hold non-standard residues; d marks the D form. Ends that are not written are not given here.

The first assay has as its target T1, mouse ADAMTS7 (Mus musculus, UniProt Q68SA9, E373Q).
T1 construct: Full-length mouse Adamts7 1-1857 (Uniprot Q68SA9, WT or E373Q catalytic mutant); expressed in transfected cells; host or cells: Human Coronary Artery Smooth Muscle Cells (HCA-SMC, Lonza), adenovirus 50 MOI
T1 sequence (Q68SA9 221-1657 E373Q): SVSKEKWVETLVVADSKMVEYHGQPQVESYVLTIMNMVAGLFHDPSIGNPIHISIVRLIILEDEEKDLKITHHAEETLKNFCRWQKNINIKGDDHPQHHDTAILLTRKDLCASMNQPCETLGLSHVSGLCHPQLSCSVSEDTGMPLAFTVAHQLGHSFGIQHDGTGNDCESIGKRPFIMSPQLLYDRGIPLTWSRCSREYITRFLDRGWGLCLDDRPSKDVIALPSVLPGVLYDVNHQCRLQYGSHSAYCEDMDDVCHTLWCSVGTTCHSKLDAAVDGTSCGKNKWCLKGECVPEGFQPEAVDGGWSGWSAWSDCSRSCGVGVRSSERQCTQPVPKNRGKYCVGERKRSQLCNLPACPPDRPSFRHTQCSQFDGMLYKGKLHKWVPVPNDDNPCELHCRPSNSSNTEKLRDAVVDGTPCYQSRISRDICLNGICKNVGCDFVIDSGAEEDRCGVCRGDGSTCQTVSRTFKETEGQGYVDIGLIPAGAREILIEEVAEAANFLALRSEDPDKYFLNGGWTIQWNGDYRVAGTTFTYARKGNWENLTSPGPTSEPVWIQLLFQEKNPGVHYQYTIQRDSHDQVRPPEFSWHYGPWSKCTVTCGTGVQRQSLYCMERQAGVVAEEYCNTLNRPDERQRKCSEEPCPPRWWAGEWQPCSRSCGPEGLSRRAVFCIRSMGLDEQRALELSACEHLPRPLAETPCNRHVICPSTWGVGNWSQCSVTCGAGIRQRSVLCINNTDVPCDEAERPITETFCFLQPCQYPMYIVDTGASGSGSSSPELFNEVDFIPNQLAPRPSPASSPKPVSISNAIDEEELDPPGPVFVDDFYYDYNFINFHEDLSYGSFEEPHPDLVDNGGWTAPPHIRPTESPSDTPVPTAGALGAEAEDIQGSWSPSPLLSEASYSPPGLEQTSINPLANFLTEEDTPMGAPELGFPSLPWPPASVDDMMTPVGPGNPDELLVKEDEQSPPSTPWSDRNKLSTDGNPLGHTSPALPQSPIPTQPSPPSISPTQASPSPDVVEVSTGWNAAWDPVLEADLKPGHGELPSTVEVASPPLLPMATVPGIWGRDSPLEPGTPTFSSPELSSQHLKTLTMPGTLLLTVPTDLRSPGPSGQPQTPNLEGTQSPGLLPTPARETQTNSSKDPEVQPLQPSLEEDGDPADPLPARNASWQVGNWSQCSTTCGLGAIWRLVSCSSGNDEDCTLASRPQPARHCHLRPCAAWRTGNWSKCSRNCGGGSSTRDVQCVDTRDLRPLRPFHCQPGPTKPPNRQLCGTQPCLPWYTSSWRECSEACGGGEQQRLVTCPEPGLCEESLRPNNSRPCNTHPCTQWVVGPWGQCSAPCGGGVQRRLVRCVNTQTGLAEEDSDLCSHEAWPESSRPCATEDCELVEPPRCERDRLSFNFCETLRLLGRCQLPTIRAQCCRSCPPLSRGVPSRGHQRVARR
The assay is described as follows: TMT10 TAILS N-terminomics, SMC2 experiment (process replicates, trypsin/AspN digest). The format is cell-based. The following applies: SMC2_TAILS HC; log fold change of N-terminal peptide, Ad-mADAMTS7 EQ over Luc. The source says: ADAMTS7 Expression, Cell Culture and Preparation of the Secreted Proteins—Full-length mouse Adamts7 1-1857 (Uniprot Q68SA9, WT or E373Q catalytic mutant) with a carboxyl terminal 3xFLAG tag was used to generate custom adenoviruses as previously described. Adeno-CMV-Luciferase (Ad-Luc) from Vector Biolabs was used as a negative control. Human Coronary Artery Smooth Muscle Cells (HCA-SMC) were obtained from Lonza and expanded in Lonza SmGM-2 media in 15 cm tissue culture plates. Twenty-four hours before media collection, near confluent plates were transduced with 50 MOI adenovirus and switched to Lonza Basal SM media with volumes of 20 ml per 15 cm plate. Expression of the Flag tagged ADAMTS7 was confirmed from the media using western blot and detected using the anti-Flag M2-HRP antibody (Sigma, A8592). Collected media was processed by adding protease inhibitors (1 mM EDTA and 1 mM PMSF) and clarified by 500 g×5 min spin at 4 C to pellet cell debris. Cell media supernatants were then passed through a 0.22 um filter and kept chilled. Processed media was then concentrated 50-100× using 3 kDa Centricon Plus-70 filter unit, spun at 3,500 g×60 min at 4 C. Approximately 10% of the processed, concentrated media was set aside for total secretome proteolytic analysis. The remaining 90% of the processed, concentrated media was buffer exchanged into 50 mM HEPES pH 8.0, 150 mM NaCl (2×50 ml) using the 3 kDa Centricon Plus-70 filter unit and concentrated to >2 mg/ml to serve as input for the TAILS experiment. Secretome and TAILS input samples were stored at −80° C.
For the first experiment, referred to as SMC1, 120 ml of media from 6×15 cm dishes was pooled from each condition (Luc, WT, EQ) and processed to produce three separate inputs for the TAILS experiment. Luc, WT and EQ inputs from the SMC1 experiment were each divided into triplicate 400 ug samples to generate technical replicate TAILS data. For the second experiment, referred to as SMC2, media was processed separately in triplicate for each condition (Luc1, Luc2, Luc3, WT1, WT2, WT3, EQ1, EQ2, EQ3) using 60 ml of media from 3×15 cm dishes for each process replicate. Inputs from the SMC2 experiment used process replicates of 300 ug each to generate TAILS data. The third experiment used input from cultured Human umbilical vein endothelial cells (HUVEC) from Lifeline Cell Technology grown in VascuLife Media and transduced in Lifeline Basal EC (+bFGF2 10 ng/ml). The HUVEC experiment used the same strategy as the SMC2 experiment, with 40 ml of media from 2×15 cm dishes for each process replicate and used 200 ug each to generate TAILS data. Inputs for process replicate experiments were restricted to the lowest concentration from the 9 parallel samples for SMC2 or HUVEC.
TMT10 isotopic labeling and negative selection of non-labeled peptides-Sample preparation was performed based on the TAILS protocol from the Overall lab with some modifications. From a single experiment, nine parallel protein samples in 50 mM HEPES pH 8.0, 150 mM NaCl were separately denatured with guanidinium chloride (Sigma, G4505) to reach a final concentration of 2.5M guanidinium chloride and 250 mM HEPES and incubated at 65° C. for 15 min. Reduction was achieved through addition of tris(2-carboxylethyl) phosphine (TCEP) at a final concentration of […] and incubated at 65° C. for 45 min. Alkylation reaction was performed with addition of iodoacetamide (IAA, Sigma, A3221) to a final concentration of 10 mM IAA for 15 min at room temperature in the dark. Following denaturation, reduction and alkylation steps, ten percent of each of the nine parallel protein samples was removed and combined to serve as a pooled reference. Isobaric tags were added to free amine groups using the TMT10plex Isobaric Mass Tagging Kit (ThermoFisher, 90113) with TMT channels randomly assigned to the nine samples and TMT 131 assigned to the pooled reference. […]
“LOXL1_219 (VASAGVIYPYQPR; listed as Homo sapiens)” gave a logFC.mEQ.over.Luc of 0.09.

In the case of “LOXL2_37 (FQQPAPEYHQPQAPANVAKIQLR; listed as Homo sapiens)”, the logFC.mEQ.over.Luc is on record as −0.03.

In turn, “LOXL2_38 ([code q]QPAPEYHQPQAPANVAKIQLR; not fully specified; listed as Homo sapiens)” yielded a logFC.mEQ.over.Luc of 0.06.

“LTBP1_393 (LTATNFR; listed as Homo sapiens)” showed a logFC.mEQ.over.Luc of 0.29.

Consider “LTBP1_540 (HQQVIPHVYPVAAKTQLGR; listed as Homo sapiens)”, for which the logFC.mEQ.over.Luc is 0.05.

Staying with this assay, now noted: SMC2_TAILS HC; log fold change, mEQ over Luc.
As to “AEBP1_37 (FLEGFLSELEPEPR; listed as Homo sapiens)”, the logFC.mEQ.over.Luc is given as −0.27.

Regarding “CCDC80_66 (LEEPNLQPLQR; listed as Homo sapiens)”, the logFC.mEQ.over.Luc is −0.13.

Take “EFEMP1_124 (AVAGPEMQTGR; listed as Homo sapiens)”: the logFC.mEQ.over.Luc is on record as −0.46.

Turning to “EFEMP1_125 (VAGPEMQTGR; listed as Homo sapiens)”, the logFC.mEQ.over.Luc was −0.99.

Regarding “FBLN2_259 (ALGPPAPVQAKAR; listed as Homo sapiens)”, the logFC.mEQ.over.Luc was −0.27.

Regarding “FBLN2_260 (LGPPAPVQAKAR; listed as Homo sapiens)”, the logFC.mEQ.over.Luc is −0.44.

With “FBN1_29 (LEAGNVKETR; listed as Homo sapiens)”, the logFC.mEQ.over.Luc is −0.24.

For the substance “FBN1_53 (LKGPNVCGSR; listed as Homo sapiens)”, the logFC.mEQ.over.Luc is −0.25.

As to “FLNA_1285 (LTQTGGPHVKAR; listed as Homo sapiens)”, the logFC.mEQ.over.Luc is recorded as −1.35.

With “FN1_36 (MVQPQSPVAVSQSKPGCYDNGKHYQINQQWER; listed as Homo sapiens)”, the logFC.mEQ.over.Luc was −0.11.

Regarding “FN1_40 (QSPVAVSQSKPGCYDNGKHYQINQQWER; listed as Homo sapiens)”, the logFC.mEQ.over.Luc was −0.06.

Turning to “FN1_1143 (LTPGVEYVYTIQVLR; listed as Homo sapiens)”, the logFC.mEQ.over.Luc is −0.49.

Consider “FN1_1656 (SSSPVTGYR; listed as Homo sapiens)”, for which the logFC.mEQ.over.Luc is on record as −0.65.

Regarding “GSN_413 (HIANVER; listed as Homo sapiens)”, the logFC.mEQ.over.Luc amounted to 0.18.

Consider “HSPG2_275 (LLPGSVR; listed as Homo sapiens)”, for which the logFC.mEQ.over.Luc is −0.36.

In the case of “HSPG2_2331 (ANLAYPAGSTQPIR; listed as Homo sapiens)”, the logFC.mEQ.over.Luc is on record as −0.19.

Regarding “HSPG2_2333 (LAYPAGSTQPIR; listed as Homo sapiens)”, the logFC.mEQ.over.Luc is −0.22.

Regarding “IGFBP3_31 (SAGLGPVVR; listed as Homo sapiens)”, the logFC.mEQ.over.Luc is −0.31.

In the case of “IGFBP3_32 (AGLGPVVR; listed as Homo sapiens)”, the logFC.mEQ.over.Luc is recorded as −0.51.

For “IGFBP7_101 (AAGGPGVSGVCVCKSR; listed as Homo sapiens)”, the logFC.mEQ.over.Luc is recorded as −0.04.

“LOX_58 (LSLGSQYQPQR; listed as Homo sapiens)”: the logFC.mEQ.over.Luc was −0.08.

The substance “LOX_123 (HWFQAGYSTSR; listed as Homo sapiens)” registered a logFC.mEQ.over.Luc of 0.00.

On to “LOX_124 (WFQAGYSTSR; listed as Homo sapiens)”, for which the logFC.mEQ.over.Luc is on record as −0.11.

With “LOX_126 (QAGYSTSR; listed as Homo sapiens)”, the logFC.mEQ.over.Luc is on record as −0.26.
